These results are taken from patent publication US20240270846A1 (published 2024).

Numbering of substitutions follows the chain as printed. Names may count otherwise.

This assay deals with T1, CD3 epsilon homodimer protein (UniProt P07766 23-126).
T1 construct: Construct of the homodimer is not described; also called CD3 (CD3 epsilon)
Nature of the assay: SPR Biacore T200, CD3e homodimer on chip, antibody analyte.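 Further: CD3 epsilon homodimer amine-coupled on CM4 sensor chip, antibodies injected as analyte at 25 °C in HBS-EP+, ratio ≥0.8 taken as binding retained versus unaltered parent antibody.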 In general terms: SPR reads the build-up and loss of mass on a sensor chip optically.

T1 sequence (P07766 23-126): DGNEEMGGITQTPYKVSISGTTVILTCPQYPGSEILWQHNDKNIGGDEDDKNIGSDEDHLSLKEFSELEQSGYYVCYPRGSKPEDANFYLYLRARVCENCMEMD

B1: GLS3000 V94A one-arm antibody (antibody, human IgG1, kappa, L234A L235A, N297A, name in Kabat numbering)
light: DIVMTQSPLSLPVTPGEPASISCRSSQSLVHSNRNTYLHWYQQKPGQAPRLLIYKVSNRFSGVPDRFSGSGSGTDFTLKISRVEAEDVGVYYCGQGTQAPYTFGQGTKLEIKRTVAAPSVFIFPPSDEQLKSGTASVVCLLNNFYPREAKVQWKVDNALQSGNSQESVTEQDSKDSTYSLSSTLTLSKADYEKHKVYACEVTHQGLSSPVTKSFNRGEC
heavy: QVQLVESGGGVVQPGRSLRLSCAASGFTFSNAWMHWVRQAPGKGLEWVAQIKAKSNNYATYYAESVKGRFTISRDDSKNSLYLQMNSLKTEDTAVYYCRYVHYGAYYGVDAWGQGTTVTVSSASTKGPSVFPLAPSSKSTSGGTAALGCLVKDYFPEPVTVSWNSGALTSGVHTFPAVLQSSGLYSLSSVVTVPSSSLGTQTYICNVNHKPSNTKVDKKVEPKSCDKTHTCPPCPAPEAAGGPSVFLFPPKPKDTLMISRTPEVTCVVVDVSHEDPEVKFNWYVDGVEVHNAKTKPREEQYASTYRVVSVLTVLHQDWLNGKEYKCKVSNKALPAPIEKTISKAKGQPREPQVYTLPPSRCELTKNQVSLSCAVKGFYPSDIAVEWESNGQPENNYKTTPPVLDSDGSFFLVSKLTVDKSRWQQGNVFSCSVMHEALHNHYTQKSLSLSPDYKDDDDK
chain: EPKSSDKTHTCPPCPAPELLGGPSVFLFPPKPKDTLMISRTPEVTCVVVDVSHEDPEVKFNWYVDGVEVHNAKTKPREEQYNSTYRVVSVLTVLHQDWLNGKEYKCKVSNKALPAPIEKTISKAKGQPREPQVCTLPPSRDELTKNQVSLWCLVKGFYPSDIAVEWESNGQPENNYKTTPPVLDSDGSFFLYSKLTVDKSRWQQGNVFSCSVMHEALHNRYTQKSLSLSP
Turning to B1, the “ratio of amounts bound (altered form/GLS3000)” value came out at 1.05.

B2: GLS3000 G89Q one-arm antibody (antibody, human IgG1, kappa, L234A L235A, N297A, name in Kabat numbering)
light: B1 light with G94Q, A99V
heavy: B1 heavy
chain: B1 chain
In the case of B2, the “ratio of amounts bound (altered form/GLS3000)” value came to 0.38.

B3: GLS3000 F55T one-arm antibody (antibody, human IgG1, kappa, L234A L235A, N297A, name in Kabat numbering)
light: B1 light with F60T, A99V
heavy: B1 heavy
chain: B1 chain
With B3, the “ratio of amounts bound (altered form/GLS3000)” value was found to be 0.41.

B4: GLS3000 F55E one-arm antibody (antibody, human IgG1, kappa, L234A L235A, N297A, name in Kabat numbering)
light: B1 light with F60E, A99V
heavy: B1 heavy
chain: B1 chain
On to B4, for which the “ratio of amounts bound (altered form/GLS3000)” value came out at 0.72.

B5: GLS3000 G89I one-arm antibody (antibody, human IgG1, kappa, L234A L235A, N297A, name in Kabat numbering)
light: B1 light with G94I, A99V
heavy: B1 heavy
chain: B1 chain
As for B5, the “ratio of amounts bound (altered form/GLS3000)” value was 1.07.

B6: GLS3000 F55G one-arm antibody (antibody, human IgG1, kappa, L234A L235A, N297A, name in Kabat numbering)
light: B1 light with F60G, A99V
heavy: B1 heavy
chain: B1 chain
Consider B6, for which the “ratio of amounts bound (altered form/GLS3000)” value was determined as 1.31.

B7: GLS3000 G89T one-arm antibody (antibody, human IgG1, kappa, L234A L235A, N297A, name in Kabat numbering)
light: B1 light with G94T, A99V
heavy: B1 heavy
chain: B1 chain
Turning to B7, the “ratio of amounts bound (altered form/GLS3000)” value amounted to 1.03.

B8: GLS3000 F55M one-arm antibody (antibody, human IgG1, kappa, L234A L235A, N297A, name in Kabat numbering)
light: B1 light with F60M, A99V
heavy: B1 heavy
chain: B1 chain
In the case of B8, the “ratio of amounts bound (altered form/GLS3000)” value turned out to be 0.8.

B9: GLS3000 F55R one-arm antibody (antibody, human IgG1, kappa, L234A L235A, N297A, name in Kabat numbering)
light: B1 light with F60R, A99V
heavy: B1 heavy
chain: B1 chain
B9: the “ratio of amounts bound (altered form/GLS3000)” value was 1.31.

B10: GLS3000 F55W one-arm antibody (antibody, human IgG1, kappa, L234A L235A, N297A, name in Kabat numbering)
light: B1 light with F60W, A99V
heavy: B1 heavy
chain: B1 chain
Consider B10, for which the “ratio of amounts bound (altered form/GLS3000)” value is 0.69.

B11: GLS3000 G89V one-arm antibody (antibody, human IgG1, kappa, L234A L235A, N297A, name in Kabat numbering)
light: B1 light with G94V, A99V
heavy: B1 heavy
chain: B1 chain
For B11, the “ratio of amounts bound (altered form/GLS3000)” value was determined as 1.63.

B12: GLS3000 G89P one-arm antibody (antibody, human IgG1, kappa, L234A L235A, N297A, name in Kabat numbering)
light: B1 light with G94P, A99V
heavy: B1 heavy
chain: B1 chain
For the molecule B12, the “ratio of amounts bound (altered form/GLS3000)” value stood at 0.35.

B13: GLS3000 G89E one-arm antibody (antibody, human IgG1, kappa, L234A L235A, N297A, name in Kabat numbering)
light: B1 light with G94E, A99V
heavy: B1 heavy
chain: B1 chain
Take B13: the “ratio of amounts bound (altered form/GLS3000)” value was 0.26.

B14: GLS3000 F55Y one-arm antibody (antibody, human IgG1, kappa, L234A L235A, N297A, name in Kabat numbering)
light: B1 light with F60Y, A99V
heavy: B1 heavy
chain: B1 chain
On to B14, for which the “ratio of amounts bound (altered form/GLS3000)” value came out at 0.92.

B15: GLS3000 F55K one-arm antibody (antibody, human IgG1, kappa, L234A L235A, N297A, name in Kabat numbering)
light: B1 light with F60K, A99V
heavy: B1 heavy
chain: B1 chain
Turning to B15, the “ratio of amounts bound (altered form/GLS3000)” value was 1.33.

B16: GLS3000 G89K one-arm antibody (antibody, human IgG1, kappa, L234A L235A, N297A, name in Kabat numbering)
light: B1 light with G94K, A99V
heavy: B1 heavy
chain: B1 chain
Turning to B16, the “ratio of amounts bound (altered form/GLS3000)” value is 0.4.

B17: GLS3000 G89D one-arm antibody (antibody, human IgG1, kappa, L234A L235A, N297A, name in Kabat numbering)
light: B1 light with G94D, A99V
heavy: B1 heavy
chain: B1 chain
On to B17, for which the “ratio of amounts bound (altered form/GLS3000)” value amounted to 0.33.

B18: GLS3000 G89L one-arm antibody (antibody, human IgG1, kappa, L234A L235A, N297A, name in Kabat numbering)
light: B1 light with G94L, A99V
heavy: B1 heavy
chain: B1 chain
In the case of B18, the “ratio of amounts bound (altered form/GLS3000)” value was determined as 0.94.

B19: GLS3000 G89M one-arm antibody (antibody, human IgG1, kappa, L234A L235A, N297A, name in Kabat numbering)
light: B1 light with G94M, A99V
heavy: B1 heavy
chain: B1 chain
Regarding B19, the “ratio of amounts bound (altered form/GLS3000)” value was found to be 0.52.

B20: GLS3000 G89R one-arm antibody (antibody, human IgG1, kappa, L234A L235A, N297A, name in Kabat numbering)
light: B1 light with G94R, A99V
heavy: B1 heavy
chain: B1 chain
As for B20, the “ratio of amounts bound (altered form/GLS3000)” value is 0.19.

B21: GLS3000 F55H one-arm antibody (antibody, human IgG1, kappa, L234A L235A, N297A, name in Kabat numbering)
light: B1 light with F60H, A99V
heavy: B1 heavy
chain: B1 chain
B21: the “ratio of amounts bound (altered form/GLS3000)” value is 0.94.

B22: GLS3000 G89A one-arm antibody (antibody, human IgG1, kappa, L234A L235A, N297A, name in Kabat numbering)
light: B1 light with G94A, A99V
heavy: B1 heavy
chain: B1 chain
For the molecule B22, the “ratio of amounts bound (altered form/GLS3000)” value stood at 1.13.

B23: GLS3000 F55Q one-arm antibody (antibody, human IgG1, kappa, L234A L235A, N297A, name in Kabat numbering)
light: B1 light with F60Q, A99V
heavy: B1 heavy
chain: B1 chain
Take B23: the “ratio of amounts bound (altered form/GLS3000)” value was found to be 0.91.

B24: GLS3000 F55V one-arm antibody (antibody, human IgG1, kappa, L234A L235A, N297A, name in Kabat numbering)
light: B1 light with F60V, A99V
heavy: B1 heavy
chain: B1 chain
Take B24: the “ratio of amounts bound (altered form/GLS3000)” value was determined as 0.71.

B25: GLS3000 F55S one-arm antibody (antibody, human IgG1, kappa, L234A L235A, N297A, name in Kabat numbering)
light: B1 light with F60S, A99V
heavy: B1 heavy
chain: B1 chain
With B25, the “ratio of amounts bound (altered form/GLS3000)” value came out at 0.69.

B26: GLS3000 F55P one-arm antibody (antibody, human IgG1, kappa, L234A L235A, N297A, name in Kabat numbering)
light: B1 light with F60P, A99V
heavy: B1 heavy
chain: B1 chain
For B26, the “ratio of amounts bound (altered form/GLS3000)” value stood at 1.16.

B27: GLS3000 G89N one-arm antibody (antibody, human IgG1, kappa, L234A L235A, N297A, name in Kabat numbering)
light: B1 light with G94N, A99V
heavy: B1 heavy
chain: B1 chain
Regarding B27, the “ratio of amounts bound (altered form/GLS3000)” value is 0.8.

B28: GLS3000 G89H one-arm antibody (antibody, human IgG1, kappa, L234A L235A, N297A, name in Kabat numbering)
light: B1 light with G94H, A99V
heavy: B1 heavy
chain: B1 chain
On to B28, for which the “ratio of amounts bound (altered form/GLS3000)” value was determined as 0.7.

B29: GLS3000 F55L one-arm antibody (antibody, human IgG1, kappa, L234A L235A, N297A, name in Kabat numbering)
light: B1 light with F60L, A99V
heavy: B1 heavy
chain: B1 chain
Regarding B29, the “ratio of amounts bound (altered form/GLS3000)” value is 0.76.

B30: GLS3000 F55I one-arm antibody (antibody, human IgG1, kappa, L234A L235A, N297A, name in Kabat numbering)
light: B1 light with F60I, A99V
heavy: B1 heavy
chain: B1 chain
For the molecule B30, the “ratio of amounts bound (altered form/GLS3000)” value was 0.82.

B31: GLS3000 F55N one-arm antibody (antibody, human IgG1, kappa, L234A L235A, N297A, name in Kabat numbering)
light: B1 light with F60N, A99V
heavy: B1 heavy
chain: B1 chain
Take B31: the “ratio of amounts bound (altered form/GLS3000)” value turned out to be 0.98.

B32: GLS3000 G89F one-arm antibody (antibody, human IgG1, kappa, L234A L235A, N297A, name in Kabat numbering)
light: B1 light with G94F, A99V
heavy: B1 heavy
chain: B1 chain
In the case of B32, the “ratio of amounts bound (altered form/GLS3000)” value was determined as 1.09.
